Reference: patent publication US20260043046A1 (ADVERUM BIOTECHNOLOGIES, published 2026)

Tests used:
[1] = molecular target: T1, human complement C3 (Cat: C2910, Sigma) (human, UniProt P01024 23-1663); test: BLI (Octet HTX, 25 °C), human IgG1 in buffer against human complement C3
T1 construct: Bought protein; Native C3 is a two-chain (beta/alpha) protein processed from one precursor, so it is written here as one natural entry; also called Complement component 3

[2] = molecular target: T1, human complement C3 (Cat: C2910, Sigma); test: BLI (Octet HTX, 25 °C), HEK293 supernatant against human complement C3
Description: Supernatant from suspension HEK293 cells transfected with vector carrying gene encoding anti-C3 antibody (cell culture and transfection methods can be found in previous section) were used for kinetics analysis via Octet (BLI) to measure binding affinity to human complement C3 (Cat: C2910, Sigma). Binding experiments were performed on Octet HTX at 25° C. by LakePharma (Redwood City, CA). There were three test articles including products of pADV1176 (0.015 mg/mL), negative control (supernatant from untransfected cells) and positive control (human IgG1 in buffer—137 mM NaCl, 2.7 mM KCl, 10 mM Na₂HPO₄, 2 mM KH₂PO₄, pH 7.4, 0.98 mg/mL).

T1 sequence (P01024 23-1663 limits assumed): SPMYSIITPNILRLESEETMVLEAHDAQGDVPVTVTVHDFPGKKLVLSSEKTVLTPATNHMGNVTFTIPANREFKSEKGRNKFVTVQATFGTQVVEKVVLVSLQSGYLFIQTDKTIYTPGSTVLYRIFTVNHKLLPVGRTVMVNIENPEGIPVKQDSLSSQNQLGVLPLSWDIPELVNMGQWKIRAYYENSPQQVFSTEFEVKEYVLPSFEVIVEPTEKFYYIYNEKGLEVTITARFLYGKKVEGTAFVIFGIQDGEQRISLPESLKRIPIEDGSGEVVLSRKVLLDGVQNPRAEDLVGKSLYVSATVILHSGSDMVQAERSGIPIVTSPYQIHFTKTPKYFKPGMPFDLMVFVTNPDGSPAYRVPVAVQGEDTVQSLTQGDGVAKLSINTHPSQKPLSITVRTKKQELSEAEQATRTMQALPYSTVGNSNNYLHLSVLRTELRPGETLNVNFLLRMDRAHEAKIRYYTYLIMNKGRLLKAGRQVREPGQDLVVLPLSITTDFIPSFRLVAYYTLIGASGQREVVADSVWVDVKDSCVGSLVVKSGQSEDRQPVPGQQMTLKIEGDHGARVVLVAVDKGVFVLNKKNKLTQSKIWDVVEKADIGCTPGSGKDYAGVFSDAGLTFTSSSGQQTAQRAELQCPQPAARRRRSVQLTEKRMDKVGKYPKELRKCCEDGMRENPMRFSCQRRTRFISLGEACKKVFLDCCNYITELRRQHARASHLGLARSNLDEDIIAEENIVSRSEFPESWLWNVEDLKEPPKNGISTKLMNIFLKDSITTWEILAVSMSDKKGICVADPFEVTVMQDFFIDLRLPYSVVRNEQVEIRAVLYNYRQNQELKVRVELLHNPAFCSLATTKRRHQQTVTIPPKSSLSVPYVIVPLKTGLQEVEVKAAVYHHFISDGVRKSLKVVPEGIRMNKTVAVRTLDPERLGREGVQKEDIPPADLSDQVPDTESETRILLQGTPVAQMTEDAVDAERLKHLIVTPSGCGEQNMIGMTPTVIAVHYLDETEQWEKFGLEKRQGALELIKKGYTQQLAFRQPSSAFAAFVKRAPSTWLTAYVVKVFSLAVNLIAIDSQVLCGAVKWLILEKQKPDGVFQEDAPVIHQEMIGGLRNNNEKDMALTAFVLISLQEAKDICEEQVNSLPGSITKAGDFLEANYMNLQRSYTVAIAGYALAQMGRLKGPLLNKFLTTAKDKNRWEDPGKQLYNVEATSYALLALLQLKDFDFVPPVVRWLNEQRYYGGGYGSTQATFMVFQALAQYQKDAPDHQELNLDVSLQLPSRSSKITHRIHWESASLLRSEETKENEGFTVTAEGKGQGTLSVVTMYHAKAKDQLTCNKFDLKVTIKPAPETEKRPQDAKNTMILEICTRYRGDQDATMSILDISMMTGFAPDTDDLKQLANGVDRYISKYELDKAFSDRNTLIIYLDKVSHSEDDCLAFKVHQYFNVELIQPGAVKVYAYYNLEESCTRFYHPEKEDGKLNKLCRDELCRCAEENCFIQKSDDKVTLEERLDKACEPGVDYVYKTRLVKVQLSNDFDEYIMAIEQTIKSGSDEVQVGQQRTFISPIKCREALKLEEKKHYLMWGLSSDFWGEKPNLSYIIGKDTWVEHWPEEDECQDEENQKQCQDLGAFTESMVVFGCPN

Positive control (human IgG1 in buffer, 0.98 mg/mL) (antibody)
Kd [1]: 0.256 nM
koff [1]: 4.92e-05 s⁻¹
kon [1]: 193000 M⁻¹ s⁻¹

B1: Products of pADV1176 (anti-C3 antibody expressed from plasmid pADV1176 in suspension HEK293 cells) (antibody, human IgG1, kappa, V domains shown)
VH: QVQLVQSGAEVKKPGASVKVSCKASGYTFTDFYMDWVRQAPGQRLEWMGYIYPHNAGTTYNQQFTGRVTITVDKSASTAYMELSSLRSEDTAVYYCARRGGFDFDYWGQGTLVTVSS
VL: DIQMTQSPSSLSASVGDRVTITCKASENVDTYVSWYQQKPGKAPKLLIYGASNRYTGVPSRFSGSGSGTDFTFTISSLQPEDIATYHCGQSHSYPLTFGQGTKLEIKR
notes: Full-length humanized human IgG1, tested as unpurified HEK293 supernatant at 0.015 mg/mL; Two copies of each chain is inferred from 'full-length' IgG1; also called humanized anti-C3 antibody; products of AAV2.7m8-pADV1176
Kd [2]: 0.13 nM
koff [2]: 2.67e-05 s⁻¹
kon [2]: 206000 M⁻¹ s⁻¹
